Laboratory results from article doi:10.1101/2024.05.23.595592 (bioRxiv, 2024).
Positions count from the first letter of the chain named.

B1: TREM2 WT, biotinylated (receptor)
chain: HNTTVFQGVAGQSLQVSCPYDSMKHWGRRKAWCRQLGEKGPCQRVVSTHNLWLLSFLRRWNGSTAITDDTLGGTLTITLRNLQPHDAGLYQCQSLHGSEADTLRKVLVEVLADPLDHRDAGDLWFPGESESFEDAHVEHSISRSLLEGEIPFPPTS
modifications: biotin on the C-terminal BirA biotinylation sequence (enzymatic, BirA)
B2: Human IL-34 (19-241) (ligand)
chain: LGNEPLEMWPLTQNEECTVTGFLRDKLQYRSRLQYMKHYFPINYKISVPYEGVFRIANVTRLQRAQVSERELRYLWVLVSLSATESVQDVLLEGHPSWKYLQEVETLLLNVQQGLTDVEVSPKVESVLSLLNAPGPNLKLVRPKALLDNCFRVMELLYCSCCKQSSVLNWQDCEVPSPQSCSPEPSLQYAATQLYPPPPWSPSSPPHSTGSVRPVRAQGEGLL

Key:
Experiment in all cases: BLI
[1] = molecular target: oligomeric amyloid beta 42 (UniProt P05067)
Human IL-34 (19-241) = molecular target: B2
TREM2 R47H, biotinylated = molecular target: T1, TREM2 R47H, biotinylated (human, UniProt Q9NZC2, R47H, biotin on the C-terminal BirA biotinylation sequence (enzymatic, BirA))
T1 sequence: B1 chain with R29H

TREM2 R62H, biotinylated = molecular target: T2, TREM2 R62H, biotinylated (human, UniProt Q9NZC2, R62H, biotin on the C-terminal BirA biotinylation sequence (enzymatic, BirA))
T2 sequence: B1 chain with R44H

Row | Binder | Kd [1] [nM] | Kd (Human IL-34 (19-241)) [nM] | fold decrease in KD (affinity) against TREM2 WT (TREM2 R47H, biotinylated) [fold] | fold decrease in KD (affinity) against TREM2 WT (TREM2 R62H, biotinylated) [fold]
1 | B1 | 42.5 | 16.5 | – | –
2 | B2 | – | – | ~4 | ~4
